# Results published in patent US20240376214A1, “ANTI-C-MET ANTIBODIES AND ANTIBODY-DRUG CONJUGATES” (BYONDIS B.V., priority 2021, published 2024).
# Numbering of substitutions follows the chain as printed. Names and notes keep the numbering of the source.
# B1: wt-chi-mAb3 (antibody, human IgG1, kappa, V domains shown)
# VH: QIQLQQSGPELVKPGASVKISCKASGYTFTDYYLNWVKQRPGQGLEWIGLIFPGNDKTEYSEKFKGKATLTVDTSSSTAYIQLSRLSSEDSAIYFCSGGDYGGFVYWGQGTLVTVSS
# VL: DIQMTQSPTSLSASVGETVTITCGASENIYGALNWYQRKQGKSPQLLIYGATNLADGMSSRFSGSGSGRQFSLKINSLHPDDVATYFCQNVLSSPLTFGSGTKLEIKR
# notes: Mouse/human chimeric IgG1 kappa; also called wild-type chimeric antibody mAb3
# B2: 41C-chi-mAb3: HC-41C chimeric anti-c-Met IgG1 antibody, VH SEQ ID NO:9, VL SEQ ID NO:6 (antibody, V domains shown)
# VH: B1 VH with P41C
# VL: DIQMTQSPTSLSASVGETVTITCGASENIYGALNWYQRKQGKSPQLLIYGATNLADGMSSRFSGSGSGRQFSLKINSLHPDDVATYFCQNVLSSPLTFGSGTKLEIK
# modifications: IgG1 constant regions; HCVR - VH P41C; LCVR
# B3: wt-chi-mAb3: wild-type chimeric anti-c-Met IgG1 antibody, VH SEQ ID NO:5, VL SEQ ID NO:6 (antibody, V domains shown)
# VH: B1 VH
# VL: B2 VL
# modifications: human IgG1 constant regions; HCVR; LCVR
# B4: 41C-chi-mAb3 (antibody, human IgG1, kappa, V domains shown)
# VH: B1 VH with P41C
# VL: B1 VL
# notes: Chimeric IgG1 kappa with an engineered cysteine at HC position 41 (Kabat); also called HC-41C chimeric antibody mAb3
# B5: ADC3b (antibody, human IgG1, kappa, V domains shown)
# VH: QVQLVQSGAEVKKPGASVKVSCKASGYTFTDYYLNWVRQACGQGLEWMGLIFPGNDKTEYSEKFKGRVTLTTDTSISTAYMELSSLTSDDTALYYCSGGDYGGFVYWGQGTLVTVSS
# VL: DIQMTQSPSSLSASVGDRVTISCGASENIYGALNWYQQQPGKAPKVLIFGATNLADGVPSRFSGSGSGTDFTLTISSLQPEDFATYYCQNVLSSPLTFGQGTKLEIKR
# modifications: vc-seco-DUBA linker-drug on the engineered cysteine at HC position 41 (Kabat); DAR 1.9
# notes: Antibody-drug conjugate of mAb3b; also called mAb3b-vc-seco-DUBA
# B6: mAb3b: HC-41C humanized anti-c-Met antibody, VH SEQ ID NO:16, VL SEQ ID NO:20 (antibody, V domains shown)
# VH: B5 VH
# VL: DIQMTQSPSSLSASVGDRVTISCGASENIYGALNWYQQQPGKAPKVLIFGATNLADGVPSRFSGSGSGTDFTLTISSLQPEDFATYYCQNVLSSPLTFGQGTKLEIK
# modifications: humanized HCVR; humanized LCVR
# B7: 41C-chi-mAb2: HC-41C chimeric anti-c-Met IgG1 antibody, VH SEQ ID NO:8, VL SEQ ID NO:4 (antibody, V domains shown)
# VH: QVQLQQSGAELVRPGASVKLSCKASGYVFPDYEMHWVKQTCVHGLEWIGAFDPETGDTTYNQNFKGKATLTADKASSTAYMDLRSLTSGDSAVYYCARDYKYLYYYAMDNWGQGTSVTVSS
# VL: QIVLTQSPAIMSASLGERVTMTCTASSSITSSYLHWYQQKPGSSPKLWIYSTTNLASGVPGRFSGSGSGTSFSLTISSMEAEDAATYYCHQYRRSPLTFGAGTKLELK
# modifications: IgG1 constant regions; HCVR - VH P41C; LCVR
# B8: wt-chi-mAb2: wild-type chimeric anti-c-Met IgG1 antibody, VH SEQ ID NO:3, VL SEQ ID NO:4 (antibody, V domains shown)
# VH: B7 VH with C41P
# VL: B7 VL
# modifications: human IgG1 constant regions; HCVR; LCVR
# B9: wt-chi-mAb1: wild-type chimeric anti-c-Met IgG1 antibody, VH SEQ ID NO:1, VL SEQ ID NO:2 (antibody, V domains shown)
# VH: EVQLQQSGPELLKPGASVKMSCKASGYIFTDYFMNWVKQSHGKSLEWIGRVNPKNGDITYNQKFRGKATLTVDKSLTTAYMQLNSLTSEDSAVYFCAYDGYYDGMDFWGQGTSVTVSS
# VL: ENVLTQSPAIMSASPGEKVTMTCRANSSVSSNFLHWYQQKSGASPKLWISSTSNLAFGVPPRFSGSGSGTSYSLTISSVEAEDAATYYCHQYSGHPFTFGSGTKLEIK
# modifications: human IgG1 constant regions; HCVR; LCVR
# B10: 41C-chi-mAb1: HC-41C chimeric anti-c-Met IgG1 antibody, VH SEQ ID NO:7, VL SEQ ID NO:2 (antibody, V domains shown)
# VH: B9 VH with H41C
# VL: B9 VL
# modifications: IgG1 constant regions; HCVR - VH H41C; LCVR
# Experiments:
# [1] = target: T1, human c-Met (HGFR), full length, on the cell surface (human, UniProt P08581 25-1390); assay: flow cytometry on MKN45, NCI-H596 and PC-3 cells
# T1 construct: Endogenous c-Met on human tumor cell lines MKN45, NCI-H596, PC-3 and HepG2; also called hepatocyte growth factor receptor; mesenchymal-epithelial transition factor
# Procedure: Cellular binding of the 14 wild-type chimeric and the 14 HC-41C chimeric anti-c-Met antibodies was studied in human c-Met-positive tumor cell lines MKN45, NCI-H596 and PC-3, rhesus c-Met-positive tumor cell line 4 MBr-5, and human c-Met-negative tumor cell line MDA-MB-175-VII. Cells were used around 90% of confluence at the time of an assay, detached with Trypsin-Versene (EDTA) (Lonza) for 5-10 minutes, washed and adjusted to a concentration of 1×10⁶ cells/mL in ice-cold FACS buffer (PBS 1×, 0.1% v/w BSA, 0.02% v/v sodium azide (NaN₃)). Staining was performed in 96-well round-bottomed microtiter plates using ice-cold reagents/solutions at 4° C. to prevent the modulation and internalization of surface antigens. 100,000 cells/well were added to 96-well plates (100 μL/well) and centrifuged at 300×g for 3 minutes. In case of pre-incubation with HGF (paracrine cell lines only), the cells were resuspended in 50 ng/mL recombinant human HGF in FACS buffer (50 μL/well) and incubated for 30 minutes at 4° C., followed by two wash steps with 150 μL FACS buffer. Supernatant was discarded and cells were stained for 30 minutes with 50 μL of each antibody. Serial dilutions were made in ice-cold FACS buffer. Cells were washed twice by centrifugation at 300×g for 3 minutes and resuspended in 50 μL 6000-times diluted secondary F(ab′)₂ goat anti-human IgG (Fc fragment specific) antibody APC-conjugated (Jackson ImmunoResearch). Following a 30-minute incubation on ice, cells were washed again 2 times and resuspended in 150 μL ice-cold FACS buffer for FACS analysis. For analysis of the data, the Median Fluorescence Intensity (MFI) values were obtained.
# [2] = target: T2, c-Met (Homo sapiens, UniProt P08581, DEL964-1010); assay: Functionality of chimeric antibodies, stimulation of proliferation experiment in NCI-H596 cells; assay type: cell-based
# T2 construct: endogenous in cells; host or cells: NCI-H596
# From the text: From this perspective, although all three wt/41C chimeric mAbs were humanized and studied in further experiments, wt/41C-chi-mAb3 is the most preferred chimeric anti-c-Met antibody to further develop into an ADC for treatment of a cancer indication.
# [3] = target: T1, human c-Met (HGFR), full length, on the …; assay: cell binding on c-Met positive MKN45 cells, fluorescence readout RFU (R-PE), mean ± S.E.M. of two experiments in duplicate
# [4] = target: T1, human c-Met (HGFR), full length, on the …; assay: cell-based or functional assay
# [5] = test system: c-Met-positive tumor cell lines MKN45, NCI-H441 and PC-3; assay: Internalization by flow cytometry (AF488 quenching); assay type: cell-based, human
# Procedure: Internalization of mAb3b was studied in human c-Met-positive tumor cell lines MKN45, NCI-H441 and PC-3. Cells (100,000 cells/well of a 96-well round bottomed microtiter plate) were incubated for 30 minutes at 4° C. with 50 μL 10 μg/mL mAb3b or appropriate non-binding control antibody. After a wash step with ice-cold complete growth medium (CGM) consisting of RPMI (Lonza) supplemented with 10% heat inactivated (HI) fetal bovine serum (FBS) (Gibco) and 80 U/mL penicillin/streptomycin (Lonza), the cells were incubated for 30 minutes at 4° C. with 50 μL Alexa Fluor 488 (AF488)-labeled Fab Fragment goat anti-human IgG (1:600 dilution) (Jackson Immunoresearch). After a wash step with ice-cold CGM, cells were resuspended in 150 μL pre-warmed CGM and transferred to polypropylene tubes, one for each time point (0 h, 0.5 h, 1 h, 3 h, 24 h) and placed into a 37° C. water bath to initiate internalization. […] Identical unquenched tubes were determined for the total fluorescence at each time point. Fluorescence intensities were determined by flow cytometry (BD FACSVerse, Franklin Lakes, NJ) and indicated as the Median Fluorescence Intensity (MFI). Internalization was quantified by calculating the percentage of internalization with the formula described. […]
molecule,measurement,setting,value
B1,binding result,[1],binds
B2,Functionality,[2],Neutral
B3,Functionality,[2],Neutral
B4,binding result,[1],binds
B5,EC50 (read off the curve),[3],~0.04 µg/mL
same,"Efficacy (%), in vitro cytotoxicity, MKN-45, -HGF",[4],84%
same,"Efficacy (%), in vitro cytotoxicity, NCI-H596, +HGF",[4],44%
same,"Efficacy (%), in vitro cytotoxicity, NCI-H596, -HGF",[4],10%
same,"Efficacy (%), in vitro cytotoxicity, PC-3, +HGF",[4],75%
same,"Efficacy (%), in vitro cytotoxicity, PC-3, -HGF",[4],75%
same,"IC50 1, in vitro cytotoxicity, PC-3, -HGF",[4],0.05 nM
same,"IC50, in vitro cytotoxicity, MKN-45, -HGF",[4],0.38 nM
same,"IC50, in vitro cytotoxicity, NCI-H596, +HGF",[4],1.47 nM
same,"IC50, in vitro cytotoxicity, NCI-H596, -HGF",[4],> 10 nM
same,"IC50, in vitro cytotoxicity, PC-3, +HGF",[4],~1.01 nM
B6,Internalization,"[5]; 10 μg/mL, each of MKN45, NCI-H441, PC-3",Efficient internalization
same,time of maximum internalization,[5]; each of the cell lines,24 h
B7,Functionality,[2],Partial agonist
B8,Functionality,[2],Partial agonist
B9,Functionality,[2],Partial agonist
B10,Functionality,[2],Partial agonist
